Values joined by “and” are separate entries in the source; they are usually repeats but may differ in a detail not shown here. Equal values may be shown once.
Details: whole UniProt chain shown; for Tm / unfolding enthalpy (van 't Hoff) / unfolding enthalpy (calorimetric): Thermal
[1] = Bos taurus, pH 7.5, 25 °C, Urea, CD, Tris-HCl 20 mM, reversible: yes
[2] = Bos taurus, pH 9, 25 °C, Urea, CD, Tris-HCl 20 mM, reversible: yes
[3] = Drosophila melanogaster, pH 6, 5 °C, GdnHCl, CD, sodium phosphate 50 mM, reversible: yes
[4] = Drosophila melanogaster, pH 6, 5 °C, GdnHCl, Fluorescence, sodium phosphate 50 mM, Na2SO4 0.4 M, reversible: yes
[5] = Drosophila melanogaster, pH 6, CD, sodium phosphate 50 mM, Na2SO4 0.4 M, reversible: yes
[6] = Canis lupus familiaris, pH 4.5, 25 °C, GdnHCl, CD, acetate 50 mM, CaCl2 2 mM
[7] = Canis lupus familiaris, pH 4.5, DSC, Sodium acetate/glycine-HCl 50 mM/50 mM/, transition: 3, reversible: yes
[8] = Enterobacteria phage T4, pH 8, DSC, Tris-HCl 10 mM, NaCl 200 mM, reversible: yes
[9] = Bos taurus, pH 7.4, 23 °C, GdnHCl, CD, Sodium phosphate 200 mM, reversible: yes
[10] = Dictyostelium discoideum, pH 7.5, DSC, HEPES-NaOH 50 mM, reversible: no
[11] = Dictyostelium discoideum, pH 7.5, DSC, HEPES-NaOH 50 mM, transition: 3, reversible: no
[12] = Dictyostelium discoideum, pH 7.5, DSC, HEPES-NaOH 50 mM, transition: 3, reversible: yes
[13] = Dictyostelium discoideum, pH 8, 25 °C, Urea, Absorbance, Tris-acetate 83 mM, reversible: yes
[14] = Bos taurus, pH 6.8, 27 °C, GdnHCl, Absorbance, Sodium phosphate 50 mM, NaCl 50 mM, reversible: no
[15] = Bos taurus, pH 7.2, DSC, phosphate 20 mM, transition: 3, reversible: no

B1: Beta-crystallin B2 wild type, P02522 (protein)
chain: MASDHQTQAGKPQPLNPKIIIFEQENFQGHSHELNGPCPNLKETGVEKAGSVLVQAGPWVGYEQANCKGEQFVFEKGEYPRWDSWTSSRRTDSLSSLRPIKVDSQEHKITLYENPNFTGKKMEVIDDDVPSFHAHGYQEKVSSVRVQSGTWVGYQYPGYRGLQYLLEKGDYKDSGDFGAPQPQVQSVRRIRDMQWHQRGAFHPSS
- Tm (Bos taurus, pH 7.2, fluorescence, sodium phospahte 20 mM, NaCl, transition: 2): 56.8 °C

B2: Spermadhesin-1 wild type, P29392 (protein)
chain: MKLSSVIPWALLLSTATVDSMDWLPRNTNCGGILKEESGVIATYYGPKTNCVWTIQMPPEYHVRVSIQYLQLNCNKESLEIIDGLPGSPVLGKICEGSLMDYRSSGSIMTVKYIREPEHPASFYEVLYFQDPQA
- Tm (Bos taurus, pH 7, DSC, sodium phosphate 10 mM, reversible: no): 78.6 °C

B3: Chymosin wild type, P00794 (protein)
chain: MRCLVVLLAVFALSQGAEITRIPLYKGKSLRKALKEHGLLEDFLQKQQYGISSKYSGFGEVASVPLTNYLDSQYFGKIYLGTPPQEFTVLFDTGSSDFWVPSIYCKSNACKNHQRFDPRKSSTFQNLGKPLSIHYGTGSMQGILGYDTVTVSNIVDIQQTVGLSTQEPGDVFTYAEFDGILGMAYPSLASEYSIPVFDNMMNRHLVAQDLFSVYMDRNGQESMLTLGAIDPSYYTGSLHWVPVTVQQYWQFTVDSVTISGVVVACEGGCQAILDTGTSKLVGPSSDILNIQQAIGATQNQYGEFDIDCDNLSYMPTVVFEINGKMYPLTPSAYTSQDQGFCTSGFQSENHSQKWILGDVFIREYYSVFDRANNLVGLAKAI
- unfolding free energy [1]: 6.45 kcal/mol
- unfolding free energy [2]: 3.56 kcal/mol and 3.47 kcal/mol

B4: Growth factor receptor-bound protein 2 wild type, Q08012 (protein)
chain: MEAIAKHDFSATADDELSFRKTQILKILNMEDDSNWYRAELDGKEGLIPSNYIEMKNHDWYYGRITRADAEKLLSNKHEGAFLIRISESSPGDFSLSVKCPDGVQHFKVLRDAQSKFFLWVVKFNSLNELVEYHRTASVSRSQDVKLRDMIPEEMLVQALYDFVPQESGELDFRRGDVITVTDRSDENWWNGEIGNRKGIFPATYVTPYHS
- denaturant m value [3]: 3.48 kcal/mol/M
- unfolding free energy [3]: 1.47 kcal/mol
- denaturant m value [4]: 1.39 kcal/mol/M
- unfolding free energy [4]: 2.18 kcal/mol
- Tm [5]: 60.1 °C
- unfolding enthalpy (van 't Hoff) [5]: 33.1 kcal/mol

B5: Lysozyme C, milk isozyme wild type, P81708 (protein)
chain: KIFSKCELARKLKSMGMDGFHGYSLANWVCMAEYESNFNTQAFNGRNSNGSSDYGIFQLNSKWWCKSNSHSSANACNIMCSKFLDDNIDDDIACAKRVVKDPNGMSAWVAWVKHCKGKDLSKYLASCNL
- denaturant m value [6]: 2.43 kcal/mol/M and 1 kcal/mol/M
- unfolding free energy [6]: 2.84 kcal/mol and 5.27 kcal/mol
- denaturant m value (Canis lupus familiaris, pH 4.5, 25 °C, GdnHCl, CD, acetate 50 mM): 2.48 kcal/mol/M and 1 kcal/mol/M
- Tm [7]: 39 °C
- unfolding enthalpy (calorimetric) [7]: 44.6 kcal/mol

B6: Single-stranded DNA-binding protein wild type, P03695 (protein)
chain: MFKRKSTAELAAQMAKLNGNKGFSSEDKGEWKLKLDNAGNGQAVIRFLPSKNDEQAPFAILVNHGFKKNGKWYIETCSSTHGDYDSCPVCQYISKNDLYNTDNKEYSLVKRKTSYWANILVVKDPAAPENEGKVFKYRFGKKIWDKINAMIAVDVEMGETPVDVTCPWEGANFVLKVKQVSGFSNYDESKFLNQSAIPNIDDESFQKELFEQMVDLSEMTSKDKFKSFEELNTKFGQVMGTAVMGGAAATAAKKADKVADDLDAFNVDDFNTKTEDDFMSSSSGSSSSADDTDLDDLLNDL
- Tm [8]: 49 °C
- unfolding enthalpy (calorimetric) [8]: 84 kcal/mol

B7: Thiosulfate sulfurtransferase wild type, P00586 (protein)
chain: MVHQVLYRALVSTKWLAESVRAGKVGPGLRVLDASWYSPGTREARKEYLERHVPGASFFDIEECRDKASPYEVMLPSEAGFADYVGSLGISNDTHVVVYDGDDLGSFYAPRVWWMFRVFGHRTVSVLNGGFRNWLKEGHPVTSEPSRPEPAIFKATLNRSLLKTYEQVLENLESKRFQLVDSRAQGRYLGTQPEPDAVGLDSGHIRGSVNMPFMNFLTEDGFEKSPEELRAMFEAKKVDLTKPLIATCRKGVTACHIALAAYLCGKPDVAIYDGSWFEWFHRAPPETWVSQGKGGKA
- denaturant m value [9]: 2.34 kcal/mol/M
- unfolding free energy [9]: 3.39 kcal/mol

B8: Nucleoside diphosphate kinase, mitochondrial wild type, P34093 (protein)
chain: MFSRFARAFPKILASGASQRTFATVQKAFANPTSKKLIVGSSLLIGSAFATTSFVACENKSVPLVGLPGTNQERSFIAIKVSSTQRRLIGEIIARFEKKGFKLVGIKILVPTPEHAAKHYEDLNKKPFFNGLVKFFSSGAVVAMVFEGKDVVRTGRVLIGATDPSQSAPGTIRFDLCIETGRNIIHGSDSNESAAHEIALWFKEDEIANWVSTNPVYEKM
- Tm [10]: 61.8 °C
- unfolding enthalpy (calorimetric) [10]: 785 kcal/mol
- Tm [11]: 55.7 °C
- unfolding enthalpy (calorimetric) [11]: 319 kcal/mol
- Tm [12]: 37.5 °C
- unfolding enthalpy (calorimetric) [12]: 97 kcal/mol
- denaturant m value [13]: 1.71 kcal/mol/M
- unfolding free energy [13]: 5.42 kcal/mol

B9: Gamma-crystallin B wild type, P02526 (protein)
chain: MGKITFYEDRGFQGHCYECSSDCPNLQPYFSRCNSIRVDSGCWMLYERPNYQGHQYFLRRGDYPDYQQWMGFNDSIRSCRLIPQHTGTFRMRIYERDDFRGQMSEITDDCPSLQDRFHLTEVHSLNVLEGSWVLYEMPSYRGRQYLLRPGEYRRYLDWGAMNAKVGSLRRVMDFY
- denaturant m value [14]: 1.3 kcal/mol/M and 0.9 kcal/mol/M
- denaturant midpoint (higher = more stable) [14]: 3 M and 1.3 M
- unfolding enthalpy (calorimetric) (Bos taurus, pH 7.2, DSC, phosphate 20 mM, reversible: no): 82.3 kcal/mol and 149 kcal/mol and 90 kcal/mol
- unfolding enthalpy (calorimetric) [15]: 126 kcal/mol and 148 kcal/mol
- unfolding enthalpy (van 't Hoff) [15]: 110 kcal/mol and 71 kcal/mol

B10: Pepsin A wild type, P00792 (protein)
chain: MSVVKIPLVKKKSLRQNLIENGKLKEFMRTHKYNLGSKYIREAATLVSEQPLQNYLDTEYFGTIGIGTPAQDFTVIFDTGSSNLWVPSIYCSSEACTNHNRFNPQDSSTYEATSETLSITYGTGSMTGILGYDTVQVGGISDTNQIFGLSETEPGSFLYYAPFDGILGLAYPSISSSGATPVFDNIWDQGLVSQDLFSVYLSSNEESGSVVIFGDIDSSYYSGSLNWVPVSVEGYWQITVDSITMNGESIACSDGCQAIVDTGTSLLAGPTTAISNIQSYIGASEDSSGEVVISCSSIDSLPDIVFTINGVQYPVPPSAYILQSNGICSSGFEGMDISTSSGDLWILGDVFIRQYFTVFDRGNNQIGLAPVA
- unfolding free energy [1]: 6.36 kcal/mol
- unfolding free energy [2]: 2.72 kcal/mol
